Experiments:
HeLa Kyoto [1] = assay: solubility change mitosis vs G1/S (difference of NP-40 vs SDS log2 ratios) (log2 ratio difference); higher = more soluble in mitosis
HeLa Kyoto [2] = assay: thermal stability score vs G1/S (z-score of summed log2 fold changes over temperatures); higher = more thermally stable than in G1/S
HeLa Kyoto [3] = assay: melting temperature (median over replicates), in situ; higher = more thermally stable
HeLa Kyoto [4] = assay: solubility in G1/S (NP-40 vs SDS abundance) (log2 ratio); higher = more soluble; conditions: cell cycle stage: G1/S
[5] = cell cycle stage: early G1 (4.5 h after nocodazole release)
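Throughout, for melting temperature (median over replicates), in situ: HeLa Kyoto cells synchronized by double thymidine or nocodazole block, proteins quantified by TMT10plex mass spectrometry, three independent biological replicates.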
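Throughout, for solubility change mitosis vs G1/S (difference of NP-40 vs SDS log2 ratios): synchronized HeLa Kyoto cells (double thymidine block for G1/S, nocodazole release for mitosis), protein amounts in NP-40 versus SDS lysates quantified by mass spectrometry, three biological replicates.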
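Throughout, for solubility in G1/S (NP-40 vs SDS abundance): HeLa Kyoto cells arrested at G1/S by double thymidine block, proteins quantified by TMT10plex mass spectrometry in mild NP-40 versus SDS extracts, three biological replicates.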
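Throughout, for thermal stability score vs G1/S (z-score of summed log2 fold changes over temperatures): synchronized HeLa Kyoto cells, proteins quantified by TMT10plex mass spectrometry, three biological replicates, mitosis taken 0.5 h after nocodazole release, G1/S directly after double thymidine block.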

Substance | solubility change mitosis (log2) (HeLa Kyoto [1]) | thermal stability score (HeLa Kyoto [2]; [5]) | thermal stability score (HeLa Kyoto [2]; cell cycle stage: mitosis) | melting temperature (HeLa Kyoto [3]; cell cycle stage: mitosis) [°C] | solubility in G1/S (log2) (HeLa Kyoto [4]) | melting temperature (HeLa Kyoto [3]; cell cycle stage: G1/S) [°C]
MIGCGACEPKVKMAGGQAAAALPTWKMAARRSLSARGRGILQAAAGRLLPLLLLSCCCGAGGCAAVGENEETVIIGLRLEDTNDVSFMEGGALRVSERTRVKLRVYGQNINNETWSRIAFTEHERRRHSPGERGLGGPAPPEPDSGPQRCGIRTSDIIILPHIILNRRTSGIIEIEIKPLRKMEKSKSYYLCTSLSTPALGAGGSGSTGGAVGGKGGSGVAGLPPPPWAETTWIYHDGEDTKMIVGEEKKFLLPFWLQVIFISLLLCLSGMFSGLNLGLMALDPMELRIVQNCGTEKEKNYAKRIEPVRRQGNYLLCSLLLGNVLVNTTLTILLDDIAGSGLVAVVVSTIGIVIFGEIVPQAICSRHGLAVGANTIFLTKFFMMMTFPASYPVSKLLDCVLGQEIGTVYNREKLLEMLRVTDPYNDLVKEELNIIQGALELRTKTVEDVMTPLRDCFMITGEAILDFNTMSEIMESGYTRIPVFEGERSNIVDLLFVKDLAFVDPDDCTPLKTITKFYNHPLHFVFNDTKLDAMLEEFKKGKSHLAIVQRVNNEGEGDPFYEVLGIVTLEDVIEEIIKSEILDETDLYTDNRTKKKVAHRERKQDFSAFKQTDSEMKVKISPQLLLAMHRFLATEVEAFSPSQMSEKILLRLLKHPNVIQELKYDEKNKKAPEYYLYQRNKPVDYFVLILQGKVEVEAGKEGMKFEASAFSYYGVMALTASPVPLSLSRTFVVSRTELLAAGSPGENKSPPRPCGLNHSDSLSRSDRIDAVTPTLGSSNNQLNSSLLQVYIPDYSVRALSDLQFVKISRQQYQNALMASRMDKTPQSSDSENTKIELTLTELHDGLPDETANLLNEQNCVTHSKANHSLHNEGAI [CNNM2] | 0.346 | -1.21 | -1.62 | 51.1 | -0.386 | 
MNIRNARPEDLMNMQHCNLLCLPENYQMKYYFYHGLSWPQLSYIAEDENGKIVGYVLAKMEEDPDDVPHGHITSLAVKRSHRRLGLAQKLMDQASRAMIENFNAKYVSLHVRKSNRAALHLYSNTLNFQISEVEPKYYADGEDAYAMKRDLTQMADELRRHLELKEKGRHVVLGAIENKVESKGNSPPSSGEACREEKGLAAEDSGGDSKDLSEVSETTESTDVKDSSEASDSAS [NAA10] | -0.0427 | -0.13 | -1.02 | 53.1 | 0.263 | 53.4
MEHIRTTKVEQVKLLDRFSTSNKSLTGTLYLTATHLLFIDSHQKETWILHHHIASVEKLALTTSGCPLVIQCKNFRTVHFIVPRERDCHDIYNSLLQLSKQAKYEDLYAFSYNPKQNDSERLQGWQLIDLAEEYKRMGVPNSHWQLSDANRDYKICETYPRELYVPRIASKPIIVGSSKFRSKGRFPVLSYYHQDKEAAICRCSQPLSGFSARCLEDEHLLQAISKANPVNRYMYVMDTRPKLNAMANRAAGKGYENEDNYSNIRFQFVGIENIHVMRSSLQKLLEVNGTKGLSVNDFYSGLESSGWLRHIKAVMDAAIFLAKAITVENASVLVHCSDGWDRTSQVCSLGSLLLDSYYRTIKGFMVLIEKDWISFGHKFSERCGQLDGDPKEVSPVFTQFLECVWHLTEQFPQAFEFSEAFLLQIHEHIHSCQFGNFLGNCQKEREELKLKEKTYSLWPFLLEDQKKYLNPLYSSESHRFTVLEPNTVSFNFKFWRNMYHQFDRTLHPRQSVFNIIMNMNEQNKQLEKDIKDLESKIKQRKNKQTDGILTKELLHSVHPESPNLKTSLCFKEQTLLPVNDALRTIEGSSPADNRYSEYAEEFSKSEPAVVSLEYGVARMTC [MTMR6] | 0.0297 | -0.167 | 0.0404 | 50.5 | -0.264 | 51
LACTB2 | -0.0335 | -2.61 | -0.348 | 56.1 | 0.418 | 57.7
MTAAENVCYTLINVPMDSEPPSEISLKNDLEKGDVKSKTEALKKVIIMILNGEKLPGLLMTIIRFVLPLQDHTIKKLLLVFWEIVPKTTPDGRLLHEMILVCDAYRKDLQHPNEFIRGSTLRFLCKLKEAELLEPLMPAIRACLEHRHSYVRRNAVLAIYTIYRNFEHLIPDAPELIHDFLVNEKDASCKRNAFMMLIHADQDRALDYLSTCIDQVQTFGDILQLVIVELIYKVCHANPSERARFIRCIYNLLQSSSPAVKYEAAGTLVTLSSAPTAIKAAAQCYIDLIIKESDNNVKLIVLDRLIELKEHPAHERVLQDLVMDILRVLSTPDLEVRKKTLQLALDLVSSRNVEELVIVLKKEVIKTNNVSEHEDTDKYRQLLVRTLHSCSVRFPDMAANVIPVLMEFLSDNNEAAAADVLEFVREAIQRFDNLRMLIVEKMLEVFHAIKSVKIYRGALWILGEYCSTKEDIQSVMTEIRRSLGEIPIVESEIKKEAGELKPEEEITVGPVQKLVTEMGTYATQSALSSSRPTKKEEDRPPLRGFLLDGDFFVAASLATTLTKIALRYVALVQEKKKQNSFVAEAMLLMATILHLGKSSLPKKPITDDDVDRISLCLKVLSECSPLMNDIFNKECRQSLSHMLSAKLEEEKLSQKKESEKRNVTVQPDDPISFMQLTAKNEMNCKEDQFQLSLLAAMGNTQRKEAADPLASKLNKVTQLTGFSDPVYAEAYVHVNQYDIVLDVLVVNQTSDTLQNCTLELATLGDLKLVEKPSPLTLAPHDFANIKANVKVASTENGIIFGNIVYDVSGAASDRNCVVLSDIHIDIMDYIQPATCTDAEFRQMWAEFEWENKVTVNTNMVDLNDYLQHILKSTNMKCLTPEKALSGYCGFMAANLYARSIFGEDALANVSIEKPIHQGPDAAVTGHIRIRAKSQGMALSLGDKINLSQKKTSI [COPB1] | -0.197 | 0.105 | 1.39 | 51.7 | -0.149 | 51.8
MAAPRPSPAISVSVSAPAFYAPQKKFGPVVAPKPKVNPFRPGDSEPPPAPGAQRAQMGRVGEIPPPPPEDFPLPPPPLAGDGDDAEGALGGAFPPPPPPIEESFPPAPLEEEIFPSPPPPPEEEGGPEAPIPPPPQPREKVSSIDLEIDSLSSLLDDMTKNDPFKARVSSGYVPPPVATPFSSKSSTKPAAGGTAPLPPWKSPSSSQPLPQVPAPAQSQTQFHVQPQPQPKPQVQLHVQSQTQPVSLANTQPRGPPASSPAPAPKFSPVTPKFTPVASKFSPGAPGGSGSQPNQKLGHPEALSAGTGSPQPPSFTYAQQREKPRVQEKQHPVPPPAQNQNQVRSPGAPGPLTLKEVEELEQLTQQLMQDMEHPQRQNVAVNELCGRCHQPLARAQPAVRALGQLFHIACFTCHQCAQQLQGQQFYSLEGAPYCEGCYTDTLEKCNTCGEPITDRMLRATGKAYHPHCFTCVVCARPLEGTSFIVDQANRPHCVPDYHKQYAPRCSVCSEPIMPEPGRDETVRVVALDKNFHMKCYKCEDCGKPLSIEADDNGCFPLDGHVLCRKCHTARAQT [ZYX] | -0.128 | -1.65 | 0.522 | 65.5 | 0.412 | 55.9

— the supplement of paper PMC5998384
